In assay [1] the target is secretory chicken FcRY (lacking the membrane-spanning domain, residues 36-1396). The assay can be described thus: competitive binding assay against DIG-IgY on FcRY-immobilized plate, ELISA. The settings on record: pH 6.0, DIG-IgY tracer (m10) 27.8 nM, value is DIG-IgY still bound (lower = stronger competition), no-competitor level est. 0.17 nM, n = 3, read off a plot.
For assay [2], the target named is secretory chicken FcRY (lacking the membrane-spanning domain, residues 36-1396) (chicken). In words: BLI; BLItz, advanced kinetics; chicken FcRY (400 nM) immobilised on Ni-NTA sensor via His tag; Igs 50-600 nM; pH 5.5 (PBS, 0.05% Tween 20, 20 mM MES, 0.5% BSA); association 120 s, dissociation 120 s; 1:1 fit. Background: Biolayer interferometry detects binding as a change in optical thickness at a sensor tip.

Assay [3] shares this target.
In the next assay the target is native quail IgY (qIgY). In words: bio-layer interferometry (BLItz, advanced kinetics mode). The settings on record: pH 5.5; PBS (composition not stated); PBS with 20 mM MES at pH 5.5 or 20 mM HEPES at pH 7.4.
Assay [4] deals with recombinant quail IgY-Fc wild type (WT). Described as above. The settings on record: pH 5.5; PBS (composition not stated); PBS with 20 mM MES at pH 5.5 or 20 mM HEPES at pH 7.4.
Assay [5] deals with recombinant quail IgY-Fc G365A G365A. The assay is described as above. Conditions: pH 5.5; PBS (composition not stated); PBS with 20 mM MES at pH 5.5 or 20 mM HEPES at pH 7.4.
Assay [6] concerns the target recombinant quail IgY-Fc Y363A Y363A. Described as above. The settings on record: pH 5.5; PBS (composition not stated); PBS with 20 mM MES at pH 5.5 or 20 mM HEPES at pH 7.4.
The target of assay [7] is secretory chicken FcRY (lacking the membrane-spanning domain, residues 36-1396) (chicken). The assay can be described thus: ELISA; graded pH (pH 4.0-7.4), IgY-Fc mutants at 55.6 nM on FcRY held on copper-coated plates; the acidic points (strongest at pH 5.5, pH 5.0-6.0). In general terms: In an ELISA, binding on a coated surface is turned into a signal by an enzyme label.

The target is the same in assay [8]. The source holds these as a separate data set.
Where [9] appears, read: competitor 55.6 nM, parent: est. 0.080.
[10] abbreviates: competitor 111.1 nM, parent: est. 0.060.
[11] abbreviates: competitor 277.8 nM, parent: est. 0.042.

The text below walks through data of paper PMC10938909.

On to “recombinant quail wild-type IgY-Fc N408A”, for which the response in assay [1] (setting [9]) was 0.11 nM; in assay [1] (setting [10]), 0.1 nM; in [1] (setting [11]) it was 0.086 nM.

In assay [2], “quail IgY-Fc mutant G365A (domain or fragment)” came in with a Kd of 197 nM, a koff of 0.0082 s⁻¹ and a kon of 42000 M⁻¹ s⁻¹. The substance also showed an uptake of the intravenously injected DIG-labeled IgY-Fc mutant (20 ug/100 g BW) into quail egg yolks, eggs of 6 d, relative to WT in assay [3] of 2 fold.

Consider “recombinant quail wild-type IgY-Fc G365D”, for which the figures for the response in assay [1] (setting [9]), in assay [1] (setting [10]) and in assay [1] (setting [11]) were 0.15 nM, 0.13 nM and 0.14 nM, respectively.

As for native quail IgY (ligand), in [2], the Kd was 275 nM, the koff amounted to 0.0095 s⁻¹ and the kon was found to be 35000 M⁻¹ s⁻¹.

As for “secretory FcRY (IgY-Fc receptor, PLA2R homologue) ectodomain”, the ka with native quail IgY (qIgY) worked out at 35000 M⁻¹ s⁻¹; in assay [4] it was 19000 M⁻¹ s⁻¹; in assay [5], 42000 M⁻¹ s⁻¹; in assay [6], 23000 M⁻¹ s⁻¹. Besides, the kd came out at 0.0095 s⁻¹ in the assay with native quail IgY (qIgY), 0.0065 s⁻¹ in [4], 0.0082 s⁻¹ in [5] and 0.0015 s⁻¹ in [6].

Consider “quail IgY-Fc mutant Y363A (domain or fragment)”, for which, in assay [2], the Kd amounted to 65 nM, the koff came out at 0.0015 s⁻¹ and the kon is 23000 M⁻¹ s⁻¹. The substance further had an amount bound at pH 5.0-6.0 relative to WT and G365A in assay [7] of 2 fold.

Regarding “recombinant quail wild-type IgY-Fc G365S”, the values for the response in assay [1] (setting [9]), in assay [1] (setting [10]) and in assay [1] (setting [11]) were 0.086 nM, 0.066 nM and 0.05 nM, respectively.

In assay [2], “recombinant quail wild-type IgY-Fc (domain or fragment)” returned a Kd of 333 nM, a koff of 0.0065 s⁻¹ and a kon of 19000 M⁻¹ s⁻¹. In [8], the uptake of DIG-labeled WT tracer into egg yolks of laying quail co-injected with the FcRY-neutralizing rabbit antibody Strong Ab (1 mg/100 g BW), relative to control rabbit IgG was 20% and the uptake of DIG-labeled WT tracer into egg yolks of laying quail co-injected with the FcRY-neutralizing rabbit antibody Weak Ab (1 mg/100 g BW), relative to control is 60%.

What is called Kd is the constant that tells how readily two partners part at equilibrium. Broadly, the koff is the rate constant with which the complex falls apart. The term kon denotes the rate constant with which the complex forms.
